Experimental data: article PMC5727500, “Paper-based MoS2 nanosheet-mediated FRET aptasensor for rapid malaria diagnosis”

Target: Plasmodium lactate dehydrogenase (pLDH) (Plasmodium falciparum, UniProt Q27743 1-316)
Test: FRET fluorescence recovery from MoS2 nanosheets on printer paper; 1 uM pLDH; 100 nM aptamer, 25 ug/mL MoS2 dried on printer paper; no recovery on lens, coffee filter, Whatman or Advantec paper; Aptamer buffer 20 mM Tris-HCl pH 8, 50 mM NaCl, 5 mM KCl, 5 mM MgCl2; pLDH in water, other proteins in 1x PBS; readings over 30 min; temperature not stated
Details: protein: recombinant; chain copies: 4; label: 3' FAM

Chain of Plasmodium lactate dehydrogenase (pLDH) (Q27743 whole entry): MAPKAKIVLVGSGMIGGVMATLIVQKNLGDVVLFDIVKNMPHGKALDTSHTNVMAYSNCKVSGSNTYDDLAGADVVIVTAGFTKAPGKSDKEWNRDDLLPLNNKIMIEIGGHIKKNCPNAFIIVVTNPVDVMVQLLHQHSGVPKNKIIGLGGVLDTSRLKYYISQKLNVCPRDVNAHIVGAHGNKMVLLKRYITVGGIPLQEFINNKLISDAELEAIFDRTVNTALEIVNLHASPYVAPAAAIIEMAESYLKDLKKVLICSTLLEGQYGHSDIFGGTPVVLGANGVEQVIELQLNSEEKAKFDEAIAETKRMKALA

Binder: GTTCGATTGGATTGTGCCGGAAGTGCTGGCTCGAAC (ssDNA) [pLDH aptamer]
- binding result: binds
